Assay [1] deals with T1, GST-fused P4HA1 protein (whole region of P4HA1) (human, UniProt P13674 18-534).
T1 construct: Made in E. coli; also called GST-P4HA1; GST-fused P4HA1 protein beads; not shown: GST (glutathione S-transferase) fusion partner of vector pGEX 4T-1
Nature of the assay: HTRF competition: 60 ng MBP-synoviolin-His and 10 ng GST-P4HA1, XL665-labeled anti-His and Eu(K)-labeled anti-GST antibodies. On the procedure: A standard reaction mixture comprising 60 ng MBP-synoviolin-His, 10 ng GST-P4HA1, 1 mM DTT, 1 mM EDTA, 50 mM NaCl, 0.1% BSA, 0.3% DMSO, and a test compound in 15 μL of 50 mM HEPES (pH 7.5) solution was prepared using a 384-well plate. The reaction was initiated by adding 5 μL of a 50 mM HEPES solution comprising GST-P4HA1. After a 30 minute reaction at room temperature, 5 μL of a 50 mM HEPES solution comprising an Eu(K)-labeled anti-GST antibody (20000 B counts, CIS bio international), a XL665-labeled anti-His antibody (0.025 μg, CIS bio international), and 1 M K was added. The mixture was left to stand overnight at room temperature, and the fluorescence was measured using RUBYstar™.
A general note: Time-resolved FRET reads energy transfer from a long-lived donor to a nearby acceptor.

In a further assay the target is T2, GST protein (UniProt P08515 1-218 = GST).
T2 construct: Control in the pulldown; also called control GST protein
T2 sequence (P08515 whole entry): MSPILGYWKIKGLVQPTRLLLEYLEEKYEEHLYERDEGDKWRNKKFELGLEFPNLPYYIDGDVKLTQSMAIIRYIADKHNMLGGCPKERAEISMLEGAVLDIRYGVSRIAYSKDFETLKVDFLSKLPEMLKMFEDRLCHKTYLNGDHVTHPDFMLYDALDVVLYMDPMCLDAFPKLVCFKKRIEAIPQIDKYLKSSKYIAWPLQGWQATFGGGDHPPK
The assay is described as follows: GST pulldown, SDS-PAGE and autoradiography. As to the method: A [³⁵S]-labeled Flag-P4HA1 fused protein was prepared using the TNT-coupled Translation System (Promega Corporation) and pcDNA3-Flag-P4HA1. The fused protein was added, together with GST-Syno dTM, GST-Syno RING and GST protein, to a binding buffer containing 20 mM HEPES (pH 7.9), 100 mM NaCl, 1 mM EDTA, 0.05% Tween, 5% glycerol, 1 mM DTT, 0.2 mM NaVO₄, 5 mM NaF, and 1 mM PMSF and reacted at 4° C. for 16 hours. The resulting reaction product was developed over SDS-PAGE and its radioactivity was detected with an image analyzer (BAS2000, Fujix). The binding of GST-Syno dTM and GST-Syno RING fusion protein with [³⁵S]-labeled pcDNA3-Flag-P4HA1 was observed. In contrast, no binding was found between the control GST protein and pcDNA3-Flag-P4HA1 (FIG. 2).

No end group written: not given here.

B1: partial peptide of the partially modified synoviolin (SEQ ID NO: 5) (peptide)
peptide: DNVCIICREEMVTGAKRLDCN
modifications: cysteine pairing not given here; also: partially modified, modification not given here
Broadly, the IC50 is the midpoint of a concentration-inhibition curve. The low end stands for greater potency in that assay, the high end for weaker potency in that assay. B1: in assay [1], the IC50 was found to be 167 µg/mL.

B2: [35S]-labeled Flag-P4HA1 fused protein (enzyme)
chain: HPGFFTSIGQMTDLIHTEKDLVTSLKDYIKAEEDKLEQIKKWAEKLDRLTSTATKDPEGFVGHPVNAFKLMKRLNTEWSELENLVLKDMSDGFISNLTIQRQYFPNDEDQVGAAKALLRLQDTYNLDTDTISKGNLPGVKHKSFLTAEDCFELGKVAYTEADYYHTELWMEQALRQLDEGEISTIDKVSVLDYLSYAVYQQGDLDKALLLTKKLLELDPEHQRANGNLKYFEYIMAKEKDVNKSASDDQSDQKTTPKKKGVAVDYLPERQKYEMLCRGEGIKMTPRRQKKLFCRYHDGNRNPKFILAPAKQEDEWDKPRIIRFHDIISDAEIEIVKDLAKPRLSRATVHDPETGKLTTAQYRVSKSAWLSGYENPVVSRINMRIQDLTGLDVSTAEELQVANYGVGGQYEPHFDFARKDEPDAFKELGTGNRIATWLFYMSDVSAGGATVFPEVGASVWPKKGTAVFWYNLFASGEGDYSTRHAACPVLVGNKWVSNKWLHERGQEFRRPCTLSELE
modifications: 35S label from in vitro translation (the FIG. 2 legend prints 32P)
notes: Made with the TNT-coupled Translation System from pcDNA3-Flag-P4HA1; also called pcDNA3-Flag-P4HA1; [32P]-labeled Flag-P4HA1 fused protein; not shown: Flag tag
In the case of B2, the binding result with GST protein is “no binding”.

Values taken from US20070134720A1 (published 2007).
